The record followed here is patent US20170240645A1 (Genentech, published 2017).

Assay [1] addresses T1, human PMEL17 (human, UniProt P40967 25-661).
T1 construct: Untagged PMEL17 as it occurs on melanoma cell lines, normal human melanocytes, PC3 cells stably expressing PMEL17 cDNA, and in human tissue sections; also called Melanocyte protein PMEL17
T1 sequence: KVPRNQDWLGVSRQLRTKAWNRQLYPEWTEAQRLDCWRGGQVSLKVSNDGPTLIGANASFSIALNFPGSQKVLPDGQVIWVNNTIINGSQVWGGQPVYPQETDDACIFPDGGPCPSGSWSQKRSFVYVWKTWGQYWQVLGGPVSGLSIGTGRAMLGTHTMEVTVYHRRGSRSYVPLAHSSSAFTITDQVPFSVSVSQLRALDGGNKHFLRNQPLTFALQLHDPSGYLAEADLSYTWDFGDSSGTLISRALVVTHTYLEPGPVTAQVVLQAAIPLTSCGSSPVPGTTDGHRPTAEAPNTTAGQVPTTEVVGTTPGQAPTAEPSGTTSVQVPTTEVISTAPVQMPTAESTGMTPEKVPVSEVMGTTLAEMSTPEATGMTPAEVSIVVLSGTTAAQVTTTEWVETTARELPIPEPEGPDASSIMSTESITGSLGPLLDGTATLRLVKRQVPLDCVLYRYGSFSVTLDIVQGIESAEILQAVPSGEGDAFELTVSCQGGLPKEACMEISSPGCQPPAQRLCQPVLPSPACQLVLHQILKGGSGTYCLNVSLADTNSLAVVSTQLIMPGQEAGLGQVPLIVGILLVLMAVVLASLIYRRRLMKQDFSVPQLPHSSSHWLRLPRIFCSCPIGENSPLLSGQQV
Kind of assay: flow cytometry on parental and in vivo-derived resistant UACC-257X2.2 melanoma cells, detected with anti-human Alexa 488 conjugate; control peak is secondary antibody only. Here is the method: Expression of ETBR and PMEL17 on the surface of the in vivo- and in vitro-derived resistant UACC-257X2.2 cells and the parental UACC-257X2.2 cells was then determined by FACS. Cells were stained with anti-ETBR antibody (hu5E9.v1 or ch5E9) or with anti-PMEL17 antibody (ch17A9), followed by an anti-human Alexa 488 antibody conjugate. […] Surface expression of PMEL17 was unchanged in the resistant cells as compared to the parental cells.

In assay [2] the target is T1, human PMEL17. Put plainly: FACS screen of hybridoma clones.
The target of assay [3] is T2, endothelin B receptor (ETBR) (UniProt P24530 27-442, limits assumed).
T2 sequence (looked up): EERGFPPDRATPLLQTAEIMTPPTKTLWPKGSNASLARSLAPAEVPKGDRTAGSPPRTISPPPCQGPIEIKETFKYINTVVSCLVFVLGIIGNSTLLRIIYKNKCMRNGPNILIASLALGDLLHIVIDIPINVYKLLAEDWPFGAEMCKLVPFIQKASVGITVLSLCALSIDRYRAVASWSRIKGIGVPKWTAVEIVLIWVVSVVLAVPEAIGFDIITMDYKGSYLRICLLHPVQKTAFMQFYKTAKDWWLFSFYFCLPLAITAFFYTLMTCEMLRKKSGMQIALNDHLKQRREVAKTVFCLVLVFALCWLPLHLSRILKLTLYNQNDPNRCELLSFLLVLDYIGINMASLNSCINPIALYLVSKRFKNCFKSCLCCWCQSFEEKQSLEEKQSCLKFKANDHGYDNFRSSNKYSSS
Kind of assay: cell-based or functional assay.

B1: ch17A9 (antibody, human IgG1, kappa, V domains shown)
VH: EVQLQQSGPELVKPGASMKISCKSSGYSFTRYTMNWVKQSHGKNLEWIGVINPYNGGTVYNQKFKGKATLTVDKSSSTAYMELLSLTSEDSAVYYCARTDYDGYAMDYWGQGTSVTVSS
VL: DVQITQSPSYLAASPGETITINCRATKSISKYLAWYQEQPGKTNNLLIYSGSTLQSGIPSRFSGSGSGTDFTLTISSLEPEDFAMYYCQQHNEYPYTFGSGTKLEIKR
notes: also called chimeric 17A9
Consider B1, for which, in the assay with human PMEL17 [1], the binding result is “binds”.

B2: 8G3 (antibody, V domains shown)
VH: EVQLQQSGPELVKPGASMRISCKASGYSFTGYTMNWVKQSHGKNLEWIGVYNPYNGGTVYNQKFKGKATLTVDKSSSTTYMELLSLTSEDSAVYYCARTDSGGYAMDCWGQGTSVTVSS
VL: DVQITQSPSYLDASPGETITINCRASKTISKYLAWYQEKPGKTNKLLIYSGSTLQSGIPSRFSGSGSGTDFTLTISSLEPEDFAMYYCQQHNEYPYTFGSGTKLEIK
notes: Mouse monoclonal antibody from a hybridoma
As for B2, the binding result with human PMEL17 [2] is recorded as “binds”.

B3: 15F2 (antibody, V domains shown)
VH: QVQLKESGPGLVAPSQSLSITCTVSGFSLTKYGVHWVRQPPGKGLEWLGVIWAGGNTNYNSALMSRLSINKDNSKSQVFLKMNSLQTDDTAMYYCATFDVWGAGTTVTVSS
VL: DIVMTQAAPSVPVTPGESVSISCRSSKSLLHSNGNTFLYWFLQRPGQSPQLLIYRMSNLVSGVPDRFSGSGSGTAFTLRISRVEAEDVGFYYCMQHLEYPYTFGGGTKLELK
notes: as for B2
In the case of B3, the binding result with human PMEL17 [2] is reported as “binds”.

B4: anti-ETBR-PNU (ch5E9 conjugated to MC-PNU-159682 through a non-cleavable linker) (antibody, human IgG1, kappa, V domains shown)
VH: QVQLLQSGAELARPGASVKLSCKASGYTFTSYWMQWVKQRPGQGLEWIGTIYPGDGDTSYAQKFKGKATLTTDKYSSTAYMQLSSLASEDSAVYYCARWGYAYDIDNWGQGTLVTVSS
VL: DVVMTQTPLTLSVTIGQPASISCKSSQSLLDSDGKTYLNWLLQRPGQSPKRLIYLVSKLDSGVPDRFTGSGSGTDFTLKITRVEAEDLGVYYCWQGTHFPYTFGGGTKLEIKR
modifications: MC-PNU-159682 on reduced cysteine residues of the antibody
Turning to B4, in assay [3], the “EC50 of cell survival (CellTiter-Glo), in vitro derived resistant UACC-257X2.2 cells” value worked out at 0.0146 µg/mL; the “EC50 of cell survival (CellTiter-Glo), in vivo derived resistant UACC-257X2.2 cells” value was 0.0143 µg/mL; the “EC50 of cell survival (CellTiter-Glo), parental UACC-257X2.2 cells” value was determined as 0.0042 µg/mL.
